From the nanobody polyreactivity screen of Harvey et al. (2022)

Experiment: yeast display, Sf9 membrane polyspecificity reagent, FACS + sequencing; frameworks hold sequencing errors
Procedure, shortened: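 In a synthetic yeast display library (Saccharomyces cerevisiae BJ5465), nanobody expression was induced with galactose for 36–48 hours. FACS gates were set low and high (top ~1%) using anti-HA fluorescence for expression and streptavidin fluorescence for binding of the Sf9 membrane reagent. Each polyreactivity label is drawn from the gate of origin.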

Row | Sequence | polyreactivity (PSR sort gate)
1 | QVQLVESGGGLVQAGGSLRLSCAPSGIILAYYAMGWYRQAPGKERELVAAISRSGGITYYADSVKGRFTISRDNAKNTVYLQMNSLKPEDTAVYYCARYSSRPYDYWGQGTQVTVSS | high polyreactivity
2 | QVQLVESGGGLVQAGGSLRLSCAASGSIFSRYTMGWYRQAPGKERELVAVISTSGGSTYYADSVKGRFTISRDNAKNTVYLQMNSLKPEDTAVYYCNARPKRGSLGGPGYGYWGQGTQVTVSS | high polyreactivity
3 | QVQLVESGGGLVQEGGSLRLSCAASGGIFGEYDMGGYRQAPGKERELVAAINWSGGSTYYADSVKGRFTISRDNAKNSVYLQMNSLKPEDTAVYYSAADRGYPRKVDYWGQVTQVTVSS | low polyreactivity
4 | QVQLVESGGGLVQAGGSLRLSCAASGSTFNDYAMGWYRQAPGKERELVAGITWRGTSTYYADSVKGRFTISRDNAKNTVYLQRNSLKPEDTAVYYCAADVYYLLWLWMDYWGQGTQVTVSS | low polyreactivity
5 | QVQLVESGGRLVQAGGSLRLSCAASGSTFVCYAMGWYRQAPGKERELVAAISSGGRTHYADSVMARFTISRDNAKNTVILQMNSLKREDTAFYYCNAAYYILRFRYDYWGQGTQVTVSS | high polyreactivity
6 | QVQLVESGGGLVQAGGSLRLSCAASGSTLVYNAMGWYRQAPGKERELVAAISRSGGITYYADSVKGRFTISRDNAKNTVYLQMNSLKPEDTAVYYCNAVVRTRYRPGYDYDYWGQGTQVTVSS | high polyreactivity
7 | QVQLVESGGGLVQAGGSLRLSCAASGITFYEYAMGWYRQAPGKEREFVAAIDDGDSSTYYADSVKGRFTISRDNAKNTVYLQMHSLKPEDTAVYYCNADPYYVYSLNWGDFWGQGTQVTVSS | low polyreactivity
8 | QVQLVESGGGLVQAGGSLRLSCAASGYIFDDNAMGWYRQAPGKERELVATNYADSVKGRFTISRDNAKNTVYLQMNSLKPEDTAVYYCAKDVWQTYTDLDHWGQGTQVTVSS | low polyreactivity
9 | QVQLVESGGGLVQARGSLRLSSAASGSTFYDYAMGWYRHAPGKERELVAAISGNGDSTYYADSVKGRFTISRDNAKNTVYLQMNSLNPEDTAVYYCAAYLGWGYDYWGQGTQVTVSS | low polyreactivity
10 | QVQLVESVGGLVQAGGTLRLSCAASGRIFCIYAMGWYRPAPGKVRSLVATITGSGGSTYYADSVKGRFTISRDNAKNTVYLQLHSLKPEDTAVYYCAARYPVSGGYDYWGQGNQVTVSS | low polyreactivity
11 | QVQLQESGGGLVQAGGSLRLSCAESGSISRYYDMGWYRQAPGKEREFVAGISGGAITYYADSVKGRFTISRDNAKNTVYLQMNSLKPEDTAVYYCAADTGVYQYHSYWGQGTQVTVSS | low polyreactivity
12 | QVQLVESGGGLVQAGGSLRLSCAASGSTFHSYVMGWYRQAHGKERELVAAITSRGGSTNYADSVKGRFTISRDNAKNTVYLQMNSLKPEDTAVYYCAADGYWGWSYFRYDYWGQGTLVTVSS | low polyreactivity
13 | QVQLVESGGGLVQAGGSLRLSCAASGNTFVRNAMGWYRQAPGKERELVASISQSGGTTYYADSVKGRFTISRDNAKNTVYLQMNSLKPEDTAVYYCNAARYRRSPGHTKYNYWGQGTQVTVSS | high polyreactivity
14 | QQLQESGGGLVQAGGSLRLSCAASGSISGSVLMGWYRQAPGKEREFVASISLGGNTNYADSVKGRFTISRENAKNTVYLQMNCLKPEVAAVYYCAAYISLFETHPYWGQGTQVTVSS | high polyreactivity
15 | QVQLVESGGGLVQAGGSLRLSCAASGSTFPDYVMGWYRQAPGKERELVAAISSIGGSTYYADSVKGRFTISRDKAKNTVYLQMNSLKPEDTAVYYCAAENSYFYPFDYWGQGTQVTVSS | low polyreactivity
16 | QVQLVESGGCLVQAGGRLRISSAASGSIFAINDIGWYRQAPGKERELVAAIRSGGRTYYADSVKGRFTISRDNAKNTVYLQMNSLKPEYTAVYYCNAGGKWIGSDNWGQGTQVTVSS | high polyreactivity
17 | QVQLVESGGGLVQAGGSLRLSCAASGFIFRWYAMGWYRQAPGKERELVAGISASGGSTYYADSVKGRFTISRDNAKNTVYLQMNSLKPEDTAVYYCAAYRRNSRWELDYWGQGTQVTVSS | high polyreactivity
18 | QVQLVESGGGLVQAGGSLRLSCAASGRTFYKYTMGWYRQAPGKERELVAAITTSGGGTYYADSVKGRFTISRDNAKNTVYIQMNSLKPEDTAVYYCAARYRELRTEYYYWGQGTQVTVSA | high polyreactivity
19 | QVQLVESGGGLVQAGGSLRLSCAASGSIFFTNAKGLSRQAPGKERELVAAITSSGTRTYYADSVKGRFTISRDNAKNTVYLQKNSLKPEDTAVYYCAVEVQYKYDYSHTYRYYYWGQGSQVTVSS | high polyreactivity
20 | QVQLVESGGGLVQAGGSLRLSCAASGRTFYYYGMGWYRQAPGKERELVASITNGGNTNYADSVKGRFTISRDNAKNTVYLQMNSLKPEDTAVYYCAKDVPYWRPVVRYDYWGQGTQVTVSS | low polyreactivity
21 | QVQLVESGAGIVQAGGSLRVSSAASGSIFHSYAMGWYRQEPGKERELVAGITYRTGSTYYADSVKGRVTNSRDNAKNTVYFQMNSLKPEDTAVYYCAAGYYSRYFEAFEYYYWGLGTQVTVSS | high polyreactivity
22 | QVQLVESGGGLVQAGGSLRLSCAASGRTFLYYTMGWYRQAPGTERELVATINYSGGRTYYADSVKGRFTISRDNANNTVYFQMNSLKPVATAVYFWAKSGRALWWYDYWGQGTQVTVSS | high polyreactivity

Row | Sequence | polyreactivity (PSR sort gate)
23 | QVQLVESGGGLVQAGGRHRLTCAASGRILGYYAMGWYRQAPGKQRELVAAITRGGTTNYADSVKGRFTISRDNAMNTVYLQKNSQKPEDSAGYYCAADLARYGKRYDFWGQGTQVTLSS | low polyreactivity
24 | QVQLVESGGGLVQAGGSLRLSCAASGRPFHRNAMGWYRPAPGKERELVAAITGDGRTNYADSVKGRFTLSRDNAKNTVYLQMNSLKPEDTAFYYCAAEAVWFVGQAFDISDSTTYGFWGQGTQVTVSS | low polyreactivity
25 | QVQLVESGGGLVQAGGSLRLSCAASGIISYLYAMGWYRQAPGKERELVAVIRTSDAITYYADSVKGRFTISRDNAKNTVYLQMNSLKPEDTAVYYCNRDRGSIYGWGQGTQVTVSS | high polyreactivity
26 | QVQLVESGGGLVQAGGSLRLTCAASGRNFDYNARGWYRQAPGKEREFVAPISGRGGSTYYADSVKGRFTISRDNAKNRVYLQMNSLKPEDTAVYYCAADWRYRYSGRYDYWGQGTQVTVSS | high polyreactivity
27 | QVQLVESGGGLVQAGGSLRLSCAASGRTFPGNAMGWYRQAPGKERELVAAISWSGTRTYYADSVKGRFTISRDNAKNTVYLQMNSLKPEDTAVYYCNRRYWSFFPYDYWGQGTQVTVSS | high polyreactivity
28 | QVQLVESGGGLVQAGGSLRLSCAASVIIYHYYAMGWYRPAPGKERELVAAIDSGGSTYYADSVKGRFTISRDNAKNTVYLQMNSLKPEDTADYYCNAGPSVTSGYDYDYWGHGTQVTVSS | low polyreactivity
29 | QVQLVESGGGLVQAGGSLRLSSAASGSSFYRYAMGSYRQAPGKERELVATITRSGGSTYYADSVKGRFTISRDNAKNTVYLQMNSLKPEDTAVYYCAARGWYKSDYWGQGTQVTVSS | low polyreactivity
30 | QVQLVESGGGLVQAGGSLRLSCAASGGTFRRYTMGWYRPAPGKERELVAVISRSGGSTYYADSVKGRFTISRDIAKNTVYLQMNSLKPEDTAVYYCAVVYYNGYDWGQGTQVTVSS | high polyreactivity
31 | QVQLVESGGGLVQAGGSLRLSCAASGSILIYNAMGWYRQARGKERELVAAISTSGGSTYYADSVKGRFTISRDTAKNTVYLQMNSLKPEDTAVYYCAARAYPYGYWGQGTQVTVSS | low polyreactivity
32 | QVQLVESGGGLVHAGSSLRLSCAASGSTYPYNAMGWYRQAPGKERELVAAIDYSGGSTYAVSVKGRFTISRDNAKNTVYLQMNSLTPEDTAVYYCAYCRVVVYDVSGDDEDYDYWGQGSQVTVSS | low polyreactivity
33 | QVQLVESGGGLVQAGGSLRLSCAASGGTLFQNAMGWYRQAPGKERELVATIRVSGGITYYADSVKGRFTISRDNAKNTVYLQMNSLKPEDTAVYYCAKDSADSRAVGDVLTFDYWGQGTQVTVSS | low polyreactivity
34 | QVQLVESGGGLVQAGGSLRLSCAASGRTFGWYAMGSYRQAPGKERELVAAITSGTSTYYADSVKGRFTISRDNAKYTVYLQMNSRKPEDTAVYYCAVDRGISVGYTRFDYWGQGTQVTVSS | low polyreactivity
35 | QVQLVESGGGLVQAGGSIRLSCAASGFIFFSNAMGWYRQAPGKERELVAVIDRATSTYYADSVKGRFTISRDNAKNTVYLQMNSLKPEDTAVYYCNADGEEVYDFNYFLSFKGDYWGQGTQVTVSS | low polyreactivity
36 | QVHLVESGGGLVQAGGSLRLSCAASGITFISYAMGWYRQAPGKEREFVAAITRRGGSTYYADSVKGRFTISRDNAKNTVYLQMNSLKPEDTAVYYCAARVLSLYTYYYWGQGTQVTVSS | high polyreactivity
37 | QVQLVESGGGLVQAGGSLRLSCAASGSTFGYNGMGWYRQAPGKERELVAAISGGARTYADSVKGRFTISRDNAKNTVYLQMNSLKPEDTAVYYCAADSPVSVTADDGYWGQGTEVTVSS | low polyreactivity
38 | QVQLVESGGGLVQAGGSLRLSCAAAGTTFSHNTMGWYRQAPGKERELVAAITSGGTTYYADSVKGRFTISRDNAKNTVYLQMMSLKPEDTAVYYCAALRPRGGYYYWGQGTQVTVSS | high polyreactivity
39 | QVQLVESGGGLVQAGGSLRLSCAASGRTFWPYAMGWYRQAPGKERELVARITASGGRTYYADSVKWRFTISRDNAKNTVYLQMNSLKPEDTAVYYCATSYSTRIWTWRAGDYWGQGSQVTVSS | high polyreactivity
40 | QVQLVESGGGLVKAGGSLRLSCAASGSIFYFNAMGWYRQAPGKERELVATIRSGDGRTYYADSVKGRFTISRDNAQNTVYLQMNSLKPEDTAVYYCNASRVVYRQAYVYGYDYWGKGTQVTVSS | low polyreactivity
41 | QVQLVESGGGLVQEGGSLRLSCAASGRIFQWNAMGWYRQAPGKERELVATISSRGGSTYYADSVKGRFTISRDNAKNTVYLQMNSLKPEDTAVYYCAARYYAKYRSYDYWGQGTQVTVSS | high polyreactivity
42 | QVQLVESGGGFVQAGGSLRLSCAASGSTFDYNTMGWYRQAPGKERELVAAISESGGSTYYADSVKGRFTISRDNAKNTVYLQMNSLKPEDTAVYYCAADTIGYHYWYDYWGQGTQVTVSS | low polyreactivity
43 | QVQLVESGGGLVQAGGSLRLSCAASGITFRRYTMGWYRQAPGKERELVAAITTNAGSTYYADSVKGRFTISRDNAKNTVYLQMNSLKPEDTAVYYCAARWYYPYRTRYSSSYGYWGQGTQVTVSS | high polyreactivity
